Blank lines part the entries; values can stand above or below the binder they belong to. *1 amine or outer side, *2 acyl side, *3 side chain or, on linkers, in order; H or OH if unused. Bridges are numbered along the chain shown (N, C = ends). Primed or numbered codes have the meaning given here. [ ]: non-standard residue; d: D form. 2Lut = 2,6-lutidylidene bridge between two thiols; Trp(5-Cl) = N[C@@H](Cc1c[nH]c2ccc(Cl)cc12)C(=O)O; Phe(3,4-Cl2) = N[C@@H](Cc1ccc(Cl)c(Cl)c1)C(=O)O; Pyridine(2,6-diCH2) = c1cc(C[*:1])nc(C[*:2])c1; Trp(7-F) = N[C@@H](Cc1c[nH]c2c(F)cccc12)C(=O)O; 2Lut″ = 2,6-lutidylidene linking two thiols; Phe(3-Cl) = N[C@@H](Cc1cccc(Cl)c1)C(=O)O; Phe(4-Cl) = N[C@@H](Cc1ccc(Cl)cc1)C(=O)O; Thz(5,5-Me2) = CC1(C)SCN[C@@H]1C(=O)O; Ser(ΨH,HPro) = O=C(O)[C@@H]1COCN1; Hyp = O=C(O)[C@@H]1C[C@@H](O)CN1; Thz = O=C(O)[C@@H]1CSCN1; Thp = NC1(C(=O)O)CCOCC1
Molecular target: human Gastric Inhibitory Peptide Receptor (GIPR) (human) (UniProt P48546)
Test: FACS competition vs biotinylated GIP-057 on CHO-K1-hGIPR cells; category A: pIC50 >8.0

- pIC50: > 8 pic50
Binder: Ac-D[Phe(4-Cl)][Trp(5-Cl)][Hyp]E[dL]C[Thp]LIC-NH2 (linker 7-11 via Pyridine(2,6-diCH2)) [Ac-Asp-Pcf-5Clw-Hyp-Glu-leu-[Cys(2Lut)-Thp-Leu-Ile-Cys]-NH2]

- pIC50: > 8 pic50
Binder: Ac-DW[Trp(5-Cl)][Thz]E[dL]C[Thp]LIC-NH2 (linker 7-11 via Pyridine(2,6-diCH2)) [Ac-Asp-Trp-5Clw-Eaz-Glu-leu-[Cys(2Lut)-Thp-Leu-Ile-Cys]-NH2]

- pIC50: > 8 pic50
Binder: Ac-DW[Trp(5-Cl)][Hyp][dE]LC[Thp]LIC-NH2 (linker 7-11 via Pyridine(2,6-diCH2)) [Ac-Asp-Trp-5Clw-Hyp-glu-Leu-[Cys(2Lut)-Thp-Leu-Ile-Cys]-NH2]

- pIC50: > 8 pic50
B1: Ac-Asp-Mcf-5Clw-Hyp-Glu-leu-[Cys(2Lut)-Thp-Leu-Ile-Cys]-NH2 (peptide)
peptide: Ac-D[Phe(3-Cl)][Trp(5-Cl)][Hyp]E[dL]C[Thp]LIC-NH2
modifications: linker 7-11 via Pyridine(2,6-diCH2)
SMILES: CC[C@H](C)[C@@H]1NC(=O)[C@H](CC(C)C)NC(=O)C2(CCOCC2)NC(=O)[C@@H](NC(=O)[C@@H](CC(C)C)NC(=O)[C@H](CCC(=O)O)NC(=O)[C@@H]2C[C@@H](O)CN2C(=O)[C@H](Cc2c[nH]c3ccc(Cl)cc23)NC(=O)[C@H](Cc2cccc(Cl)c2)NC(=O)[C@H](CC(=O)O)NC(C)=O)CSCc2cccc(n2)CSC[C@@H](C(N)=O)NC1=O

- pIC50: > 8 pic50
Binder: Ac-DW[Phe(3,4-Cl2)][Hyp]E[dL]C[Thp]LIC-NH2 (linker 7-11 via 2Lut″) [Ac-Asp-Trp-Eaa-Hyp-Glu-leu-[Cys(2Lut)-Thp-Leu-Ile-Cys]-NH2]

- pIC50: > 8 pic50
Binder: Ac-D[Trp(7-F)][Trp(5-Cl)][Hyp]E[dL]C[Thp]LIC-NH2 (linker 7-11 via Pyridine(2,6-diCH2)) [Ac-Asp-7Fw-5Clw-Hyp-Glu-leu-[Cys(2Lut)-Thp-Leu-Ile-Cys]-NH2]

- pIC50: > 8 pic50
Binder: Ac-DW[Trp(5-Cl)][Thz(5,5-Me2)]E[dL]C[Thp]LIC-NH2 (linker 7-11 via Pyridine(2,6-diCH2)) [Ac-Asp-Trp-5Clw-Dtc-Glu-leu-[Cys(2Lut)-Thp-Leu-Ile-Cys]-NH2]

- pIC50: > 8 pic50
Binder: Ac-DW[Trp(5-Cl)][Ser(ΨH,HPro)]E[dL]C[Thp]LIC-NH2 (linker 7-11 via Pyridine(2,6-diCH2)) [Ac-Asp-Trp-5Clw-Oxa-Glu-leu-[Cys(2Lut)-Thp-Leu-Ile-Cys]-NH2]

- pIC50: > 8 pic50
B2: Ac-Asp-Eaa-5Clw-Hyp-Glu-leu-[Cys(2Lut)-Thp-Leu-Ile-Cys]-NH2 (peptide)
peptide: Ac-D[Phe(3,4-Cl2)][Trp(5-Cl)][Hyp]E[dL]C[Thp]LIC-NH2
modifications: linker 7-11 via Pyridine(2,6-diCH2)
SMILES: CC[C@H](C)[C@@H]1NC(=O)[C@H](CC(C)C)NC(=O)C2(CCOCC2)NC(=O)[C@@H](NC(=O)[C@@H](CC(C)C)NC(=O)[C@H](CCC(=O)O)NC(=O)[C@@H]2C[C@@H](O)CN2C(=O)[C@H](Cc2c[nH]c3ccc(Cl)cc23)NC(=O)[C@H](Cc2ccc(Cl)c(Cl)c2)NC(=O)[C@H](CC(=O)O)NC(C)=O)CSCc2cccc(n2)CSC[C@@H](C(N)=O)NC1=O

- pIC50: > 8 pic50
Binder: {HO‑Glutar}-W[Trp(5-Cl)][Hyp]E[dL]C[Thp]LIC-NH2 (linker 6-10 via 2Lut) [HO-Glutar-Trp-5Clw-Hyp-Glu-leu-[Cys(2Lut)-Thp-Leu-Ile-Cys]-NH2]

From patent publication US20250296971A1, “GASTRIC INHIBITORY PEPTIDE RECEPTOR LIGANDS” (priority 2021, published 2025)
